{"source": "patent US20150258192A1", "about": "“COMPOSITIONS AND METHODS FOR PREVENTING OR TREATING CHRONIC LUNG ALLOGRAFT DYSFUNCTION (CLAD) AND IDIOPATHIC PULMONARY FIBROSIS (IPF)” (priority 2014, published 2015)", "test_in_all_cases": "Kinase Profiling Assay", "type_in_all_cases": "biochemical", "conditions_in_all_cases": "peptide 100 μM", "key": {"ALK(h)": {"target": "ALK(h) (Homo sapiens, UniProt Q9UM73)", "sequence (Q9UM73 19-1620)": "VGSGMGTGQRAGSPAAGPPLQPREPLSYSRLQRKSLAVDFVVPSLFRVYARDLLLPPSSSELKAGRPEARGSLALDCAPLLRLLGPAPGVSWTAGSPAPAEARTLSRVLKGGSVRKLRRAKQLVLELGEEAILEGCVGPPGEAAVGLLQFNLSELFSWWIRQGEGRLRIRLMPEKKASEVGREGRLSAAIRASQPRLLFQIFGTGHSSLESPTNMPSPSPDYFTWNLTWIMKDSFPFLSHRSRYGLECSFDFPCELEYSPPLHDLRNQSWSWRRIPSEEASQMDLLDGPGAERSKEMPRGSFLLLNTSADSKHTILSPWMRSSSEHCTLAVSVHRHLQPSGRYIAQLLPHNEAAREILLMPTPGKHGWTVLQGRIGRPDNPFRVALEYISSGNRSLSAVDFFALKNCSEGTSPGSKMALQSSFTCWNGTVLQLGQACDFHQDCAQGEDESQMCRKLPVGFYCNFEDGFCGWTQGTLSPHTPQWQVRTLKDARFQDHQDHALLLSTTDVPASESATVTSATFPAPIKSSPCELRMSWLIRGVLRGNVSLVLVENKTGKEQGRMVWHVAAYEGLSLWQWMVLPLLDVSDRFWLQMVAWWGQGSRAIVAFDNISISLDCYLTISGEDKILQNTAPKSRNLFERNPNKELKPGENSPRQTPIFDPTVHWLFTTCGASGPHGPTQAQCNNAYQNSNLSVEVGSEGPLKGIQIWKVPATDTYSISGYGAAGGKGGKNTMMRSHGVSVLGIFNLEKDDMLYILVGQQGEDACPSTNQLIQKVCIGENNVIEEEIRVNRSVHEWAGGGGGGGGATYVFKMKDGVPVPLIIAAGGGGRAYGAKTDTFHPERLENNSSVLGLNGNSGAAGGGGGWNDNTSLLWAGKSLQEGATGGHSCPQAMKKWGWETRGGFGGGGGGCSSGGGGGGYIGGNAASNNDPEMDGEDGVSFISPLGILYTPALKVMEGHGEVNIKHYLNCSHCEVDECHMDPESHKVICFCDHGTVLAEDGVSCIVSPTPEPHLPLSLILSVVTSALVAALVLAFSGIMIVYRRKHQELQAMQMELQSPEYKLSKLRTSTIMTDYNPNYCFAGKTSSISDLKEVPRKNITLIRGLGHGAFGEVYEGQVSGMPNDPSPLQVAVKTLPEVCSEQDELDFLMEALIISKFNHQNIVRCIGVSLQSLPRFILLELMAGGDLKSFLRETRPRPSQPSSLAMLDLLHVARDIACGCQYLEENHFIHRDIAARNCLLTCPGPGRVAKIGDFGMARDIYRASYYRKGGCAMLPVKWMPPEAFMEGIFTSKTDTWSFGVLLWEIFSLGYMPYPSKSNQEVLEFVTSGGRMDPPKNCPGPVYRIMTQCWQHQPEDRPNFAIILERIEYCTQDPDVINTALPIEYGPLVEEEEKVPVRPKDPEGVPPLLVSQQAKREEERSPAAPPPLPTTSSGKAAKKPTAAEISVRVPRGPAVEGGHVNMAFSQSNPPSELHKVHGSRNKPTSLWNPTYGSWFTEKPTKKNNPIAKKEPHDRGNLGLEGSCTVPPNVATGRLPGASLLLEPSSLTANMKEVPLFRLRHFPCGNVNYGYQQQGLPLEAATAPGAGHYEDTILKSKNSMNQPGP", "summary_of_the_method": "(§1)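 Radiometric filter-binding format: cationic substrate takes up labeled phosphate from ATP unless the inhibitor peptide blocks the kinase. Substrate bound to an anionic filter, scintillation-counted, normalized to 100% activity control. Duplicates; part of a 266-kinase selectivity panel for MK2 peptides.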"}, "MuSK(h)": {"target": "T1, MuSK(h) (Homo sapiens, UniProt O15146)", "T1 construct": "purchased Millipore", "T1 sequence (O15146 24-869)": "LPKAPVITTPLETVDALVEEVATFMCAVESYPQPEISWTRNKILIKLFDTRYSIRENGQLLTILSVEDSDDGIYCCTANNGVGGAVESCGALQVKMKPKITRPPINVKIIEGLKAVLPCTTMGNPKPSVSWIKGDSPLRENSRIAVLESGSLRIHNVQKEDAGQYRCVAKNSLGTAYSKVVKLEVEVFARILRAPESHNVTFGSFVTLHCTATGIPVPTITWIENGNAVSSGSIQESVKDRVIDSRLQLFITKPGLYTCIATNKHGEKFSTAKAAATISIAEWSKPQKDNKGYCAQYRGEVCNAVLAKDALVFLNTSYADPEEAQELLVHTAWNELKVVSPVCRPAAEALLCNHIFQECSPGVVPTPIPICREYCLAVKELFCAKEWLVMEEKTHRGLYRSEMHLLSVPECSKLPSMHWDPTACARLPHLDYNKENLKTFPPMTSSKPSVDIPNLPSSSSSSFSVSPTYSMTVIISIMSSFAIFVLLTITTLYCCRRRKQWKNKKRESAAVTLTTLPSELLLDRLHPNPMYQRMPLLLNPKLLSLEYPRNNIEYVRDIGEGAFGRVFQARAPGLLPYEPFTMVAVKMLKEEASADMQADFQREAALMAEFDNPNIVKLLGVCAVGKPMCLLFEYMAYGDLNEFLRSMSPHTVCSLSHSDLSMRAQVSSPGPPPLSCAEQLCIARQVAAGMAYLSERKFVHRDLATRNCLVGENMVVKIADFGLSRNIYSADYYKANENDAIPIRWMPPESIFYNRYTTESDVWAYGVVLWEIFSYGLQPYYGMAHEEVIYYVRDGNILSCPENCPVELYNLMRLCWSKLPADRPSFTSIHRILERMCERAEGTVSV", "summary_of_the_method": "as §1"}, "Mnk2(h)": {"target": "T2, Mnk2(h) (Homo sapiens, UniProt Q9HBH9)", "T2 construct": "purchased Millipore", "T2 sequence (Q9HBH9 whole entry)": "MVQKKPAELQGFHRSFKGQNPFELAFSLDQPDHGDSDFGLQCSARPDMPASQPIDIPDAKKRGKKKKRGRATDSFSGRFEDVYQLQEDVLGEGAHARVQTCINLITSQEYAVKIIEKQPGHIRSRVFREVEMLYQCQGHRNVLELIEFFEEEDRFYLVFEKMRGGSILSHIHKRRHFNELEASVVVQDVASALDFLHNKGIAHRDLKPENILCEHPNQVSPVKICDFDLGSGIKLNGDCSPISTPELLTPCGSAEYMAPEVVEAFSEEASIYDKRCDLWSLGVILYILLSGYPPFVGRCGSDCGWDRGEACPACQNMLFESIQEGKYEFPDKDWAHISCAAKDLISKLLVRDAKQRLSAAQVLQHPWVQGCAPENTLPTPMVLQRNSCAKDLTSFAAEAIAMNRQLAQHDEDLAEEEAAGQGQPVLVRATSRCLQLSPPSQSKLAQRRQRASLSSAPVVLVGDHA", "summary_of_the_method": "as §1"}, "PTK5(h)": {"target": "PTK5(h) (Homo sapiens, UniProt P42685)", "sequence (P42685 whole entry)": "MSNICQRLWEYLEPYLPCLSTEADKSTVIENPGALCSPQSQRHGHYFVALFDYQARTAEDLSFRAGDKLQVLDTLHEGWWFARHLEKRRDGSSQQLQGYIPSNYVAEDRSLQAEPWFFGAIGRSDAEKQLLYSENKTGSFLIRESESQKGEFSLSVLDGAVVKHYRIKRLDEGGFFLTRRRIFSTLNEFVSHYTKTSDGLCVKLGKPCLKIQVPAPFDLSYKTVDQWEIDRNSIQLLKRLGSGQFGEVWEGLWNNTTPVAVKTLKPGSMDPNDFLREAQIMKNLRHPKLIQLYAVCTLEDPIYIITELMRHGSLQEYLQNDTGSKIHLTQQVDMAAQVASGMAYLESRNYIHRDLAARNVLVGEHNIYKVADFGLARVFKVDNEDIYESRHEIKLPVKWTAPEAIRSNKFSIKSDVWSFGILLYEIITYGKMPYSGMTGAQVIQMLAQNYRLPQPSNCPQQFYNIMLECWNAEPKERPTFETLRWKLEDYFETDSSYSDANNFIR", "summary_of_the_method": "as §1"}, "CDK9/cyclin T1(h)": {"target": "CDK9/cyclin T1(h) (Homo sapiens, UniProt P50750)", "sequence (P50750 whole entry)": "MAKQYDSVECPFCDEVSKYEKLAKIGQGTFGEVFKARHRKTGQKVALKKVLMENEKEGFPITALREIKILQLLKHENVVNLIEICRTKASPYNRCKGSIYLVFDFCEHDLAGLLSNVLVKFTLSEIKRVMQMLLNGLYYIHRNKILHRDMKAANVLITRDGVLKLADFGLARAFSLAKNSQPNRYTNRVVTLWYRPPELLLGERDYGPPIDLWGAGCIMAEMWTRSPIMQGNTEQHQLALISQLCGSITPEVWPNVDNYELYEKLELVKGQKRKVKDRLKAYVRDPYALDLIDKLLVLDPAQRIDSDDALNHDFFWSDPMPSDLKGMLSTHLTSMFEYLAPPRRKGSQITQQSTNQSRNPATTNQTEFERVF", "sequence (O60563 whole entry partner)": "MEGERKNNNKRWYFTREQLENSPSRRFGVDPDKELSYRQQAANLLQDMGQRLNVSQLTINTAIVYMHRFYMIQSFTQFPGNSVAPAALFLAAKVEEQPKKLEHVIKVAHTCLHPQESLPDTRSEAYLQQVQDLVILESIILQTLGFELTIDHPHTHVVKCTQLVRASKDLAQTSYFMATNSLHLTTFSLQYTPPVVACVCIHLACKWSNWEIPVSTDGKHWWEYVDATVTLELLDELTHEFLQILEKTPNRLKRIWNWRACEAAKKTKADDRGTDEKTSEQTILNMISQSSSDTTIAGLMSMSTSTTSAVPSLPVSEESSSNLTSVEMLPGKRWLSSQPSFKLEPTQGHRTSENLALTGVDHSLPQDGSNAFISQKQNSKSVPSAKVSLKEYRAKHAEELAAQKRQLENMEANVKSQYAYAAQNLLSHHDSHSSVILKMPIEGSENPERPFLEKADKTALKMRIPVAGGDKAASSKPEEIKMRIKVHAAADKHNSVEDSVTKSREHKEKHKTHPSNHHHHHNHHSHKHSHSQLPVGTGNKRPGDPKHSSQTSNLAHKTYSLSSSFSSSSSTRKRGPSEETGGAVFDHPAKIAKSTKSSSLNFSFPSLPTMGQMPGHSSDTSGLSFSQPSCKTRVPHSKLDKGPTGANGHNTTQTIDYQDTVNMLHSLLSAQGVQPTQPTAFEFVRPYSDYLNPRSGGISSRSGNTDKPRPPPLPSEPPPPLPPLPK", "summary_of_the_method": "as §1"}, "IRAK4(h)": {"target": "T3, IRAK4(h) (Homo sapiens, UniProt Q9NWZ3)", "T3 construct": "purchased Millipore", "T3 sequence (Q9NWZ3 1-460)": "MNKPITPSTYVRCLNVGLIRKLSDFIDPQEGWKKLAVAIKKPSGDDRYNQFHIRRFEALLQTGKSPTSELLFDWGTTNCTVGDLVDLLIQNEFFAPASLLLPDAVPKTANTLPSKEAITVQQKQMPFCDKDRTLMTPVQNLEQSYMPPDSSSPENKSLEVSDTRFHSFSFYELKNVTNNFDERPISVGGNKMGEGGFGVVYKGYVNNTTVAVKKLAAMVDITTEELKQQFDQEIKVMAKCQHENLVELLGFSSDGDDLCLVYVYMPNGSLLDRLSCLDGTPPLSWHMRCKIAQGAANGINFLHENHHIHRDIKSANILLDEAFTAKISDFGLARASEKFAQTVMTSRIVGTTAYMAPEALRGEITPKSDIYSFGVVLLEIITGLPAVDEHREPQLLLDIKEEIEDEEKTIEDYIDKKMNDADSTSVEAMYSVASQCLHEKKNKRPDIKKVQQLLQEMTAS", "summary_of_the_method": "as §1"}, "IKKα(h)": {"target": "T4, IKKα(h) (Homo sapiens, UniProt O15111)", "T4 construct": "purchased Millipore", "T4 sequence (O15111 1-745)": "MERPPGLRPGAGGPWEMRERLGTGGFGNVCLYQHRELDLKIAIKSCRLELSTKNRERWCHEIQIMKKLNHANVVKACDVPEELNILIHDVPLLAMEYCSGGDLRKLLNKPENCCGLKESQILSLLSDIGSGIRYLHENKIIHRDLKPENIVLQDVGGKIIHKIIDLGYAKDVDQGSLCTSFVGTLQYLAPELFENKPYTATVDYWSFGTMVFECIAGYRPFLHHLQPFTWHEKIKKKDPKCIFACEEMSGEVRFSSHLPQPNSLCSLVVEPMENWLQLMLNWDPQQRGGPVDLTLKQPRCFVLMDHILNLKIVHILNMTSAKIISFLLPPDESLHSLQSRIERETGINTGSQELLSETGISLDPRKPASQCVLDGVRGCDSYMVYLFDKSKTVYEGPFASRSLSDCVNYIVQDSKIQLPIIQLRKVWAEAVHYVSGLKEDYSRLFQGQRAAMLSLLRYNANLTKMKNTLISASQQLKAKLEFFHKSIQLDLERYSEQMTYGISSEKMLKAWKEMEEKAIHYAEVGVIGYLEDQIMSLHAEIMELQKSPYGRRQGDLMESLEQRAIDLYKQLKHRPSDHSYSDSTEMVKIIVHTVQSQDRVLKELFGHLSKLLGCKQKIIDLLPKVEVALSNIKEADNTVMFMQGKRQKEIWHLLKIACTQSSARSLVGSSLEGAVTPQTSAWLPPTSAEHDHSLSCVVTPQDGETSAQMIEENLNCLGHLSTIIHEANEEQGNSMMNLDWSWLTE", "summary_of_the_method": "as §1"}, "MSK2(h)": {"target": "T5, MSK2(h) (Homo sapiens, UniProt O75676)", "T5 construct": "purchased Millipore", "T5 sequence (O75676 whole entry)": "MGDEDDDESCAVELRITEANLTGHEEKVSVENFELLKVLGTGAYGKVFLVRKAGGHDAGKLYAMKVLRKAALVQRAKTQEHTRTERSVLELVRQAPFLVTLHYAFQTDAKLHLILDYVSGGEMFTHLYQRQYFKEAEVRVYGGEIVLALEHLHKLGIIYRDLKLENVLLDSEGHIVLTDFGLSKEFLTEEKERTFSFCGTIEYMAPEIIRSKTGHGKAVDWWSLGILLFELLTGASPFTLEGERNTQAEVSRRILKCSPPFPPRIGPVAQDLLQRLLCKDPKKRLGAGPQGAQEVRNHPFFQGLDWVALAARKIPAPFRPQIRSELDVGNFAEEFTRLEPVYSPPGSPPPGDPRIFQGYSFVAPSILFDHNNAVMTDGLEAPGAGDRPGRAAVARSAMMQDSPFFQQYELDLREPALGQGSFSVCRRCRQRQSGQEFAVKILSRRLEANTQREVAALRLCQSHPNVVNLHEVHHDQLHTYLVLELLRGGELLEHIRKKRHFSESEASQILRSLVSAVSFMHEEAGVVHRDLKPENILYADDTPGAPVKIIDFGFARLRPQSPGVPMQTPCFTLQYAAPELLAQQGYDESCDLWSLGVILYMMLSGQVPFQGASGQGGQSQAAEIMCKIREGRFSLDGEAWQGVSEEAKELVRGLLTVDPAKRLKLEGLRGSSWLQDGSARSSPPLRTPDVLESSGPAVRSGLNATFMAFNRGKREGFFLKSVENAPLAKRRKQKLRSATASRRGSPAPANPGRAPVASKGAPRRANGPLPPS", "summary_of_the_method": "as §1"}}, "note": "No end group written: not given here.", "data": [{"sequence": "FAKLAARLYRKALARQLGVAA [MMI-0300]", "values": [{"measurement": "% activity", "setting": "ALK(h)", "value": 19, "unit": "%"}, {"measurement": "% activity", "setting": "MuSK(h)", "value": 93, "unit": "%"}, {"measurement": "% activity", "setting": "Mnk2(h)", "value": 89, "unit": "%"}, {"measurement": "% activity", "setting": "PTK5(h)", "value": 132, "unit": "%"}, {"measurement": "% activity", "setting": "CDK9/cyclin T1(h)", "value": 91, "unit": "%"}, {"measurement": "% activity", "setting": "IRAK4(h)", "value": 59, "unit": "%"}, {"measurement": "% activity", "setting": "IKKα(h)", "value": 93, "unit": "%"}, {"measurement": "% activity", "setting": "MSK2(h)", "value": 56, "unit": "%"}]}, {"sequence": "HRRIKAWLKKIKALARQLGVAA (Mammal) [MMI-0500]", "values": [{"measurement": "% activity", "setting": "ALK(h)", "value": 12, "unit": "%"}, {"measurement": "% activity", "setting": "MuSK(h)", "value": 27, "unit": "%"}, {"measurement": "% activity", "setting": "Mnk2(h)", "value": 6, "unit": "%"}, {"measurement": "% activity", "setting": "PTK5(h)", "value": 96, "unit": "%"}, {"measurement": "% activity", "setting": "CDK9/cyclin T1(h)", "value": 6, "unit": "%"}, {"measurement": "% activity", "setting": "IRAK4(h)", "value": 3, "unit": "%"}, {"measurement": "% activity", "setting": "IKKα(h)", "value": 50, "unit": "%"}, {"measurement": "% activity", "setting": "MSK2(h)", "value": 14, "unit": "%"}]}, {"sequence": "KAFAKLAARLYRKALARQLGVAA [MMI-0400]", "values": [{"measurement": "% activity", "setting": "ALK(h)", "value": 16, "unit": "%"}, {"measurement": "% activity", "setting": "MuSK(h)", "value": 93, "unit": "%"}, {"measurement": "% activity", "setting": "Mnk2(h)", "value": 86, "unit": "%"}, {"measurement": "% activity", "setting": "PTK5(h)", "value": 129, "unit": "%"}, {"measurement": "% activity", "setting": "CDK9/cyclin T1(h)", "value": 235, "unit": "%"}, {"measurement": "% activity", "setting": "IRAK4(h)", "value": 59, "unit": "%"}, {"measurement": "% activity", "setting": "IKKα(h)", "value": 87, "unit": "%"}, {"measurement": "% activity", "setting": "MSK2(h)", "value": 52, "unit": "%"}]}, {"sequence": "YARAAARQARAKALARQLGVAA [MMI-0100]", "values": [{"measurement": "% activity", "setting": "ALK(h)", "value": 118, "unit": "%"}, {"measurement": "% activity", "setting": "MuSK(h)", "value": 85, "unit": "%"}, {"measurement": "% activity", "setting": "PTK5(h)", "value": 135, "unit": "%"}, {"measurement": "% activity", "setting": "IKKα(h)", "value": 108, "unit": "%"}]}, {"sequence": "YARAAARQARAKALNRQLGVA (Mammal) [MMI-0200]", "values": [{"measurement": "% activity", "setting": "ALK(h)", "value": 95, "unit": "%"}, {"measurement": "% activity", "setting": "PTK5(h)", "value": 108, "unit": "%"}, {"measurement": "% activity", "setting": "IRAK4(h)", "value": 110, "unit": "%"}, {"measurement": "% activity", "setting": "MSK2(h)", "value": 88, "unit": "%"}]}]}
